The values below come from patent publication US20190309025A1.

Assay [1] has as its target BzHuKD VLPs (Zika virus BPH2015 VLPs with E106/107 GL to KD, expressed by plasmid pEBZHu2-3 KD) (Zika virus strain BPH2015). Nature of the assay: ratio of antibody end-point titers on wt and KD VLPs.
The target of assay [2] is MR766KD VLPs (Zika virus MR766 VLPs with E106/107 GL to KD, expressed by plasmid pEZMRprME KD) (Zika virus strain MR766) (UniProt Q32ZE1). The description is as above.
Assay [3] deals with BzHuwt VLPs (Zika virus BPH2015 prM and E VLPs expressed by plasmid pEBZHu2-3, pr1-Ala deletion clone) (Zika virus strain BPH2015). The assay is described as follows: antibody end-point titration on VLPs (COS-1 supernatant).
For assay [4], the target named is MR766wt VLPs (Zika virus MR766 prM and E virus-like particles expressed by plasmid pEZMRprME1-8) (Zika virus strain MR766) (UniProt Q32ZE1). The assay is described as above.

With “flavivirus group-cross reactive murine monoclonal antibody 4G2”, in assay [1], the Fold changes (BzHuwt VLPs against BzHuKD VLPs) is over 729 fold. Moreover, the Fold changes (MR766wt VLPs against MR766KD VLPs) in assay [2] is over 2190 fold. Also, the results for the Antibody end-point titers in assay [3] and in assay [4] were 729000 and over 2.19e+06, respectively.
